The values that follow come from patent US20210388087A1 (Chugai, published 2021).

B1: H183/L072 VL Q90T (antibody, name in Kabat numbering, V domains shown)
VH: QVQLVESGGGLVQPGRSLRLSCAASGFTFSNAWMHWVRQAPGKGLEWVAQIKDKGNAYAAYYAPSVKGRFTISRDDSKNSIYLQMNSLKTEDTAVYYCHYVHYASASTVLPAFGVDAWGQGTTVTVSS
VL: DIVMTQSPLSLPVTPGEPASISCQASQELVHMNRNTYLHWYQQKPGQAPRLLIYKVSNRFPGVPDRFSGSGSGTDFTLKISRVEAEDVGVYYCATGTSVPFTFGQGTKLEIK
B2: H183/L072 VL R29M (antibody, name in Kabat numbering, V domains shown)
VH: QVQLVESGGGLVQPGRSLRLSCAASGFTFSNAWMHWVRQAPGKGLEWVAQIKDKGNAYAAYYAPSVKGRFTISRDDSKNSIYLQMNSLKTEDTAVYYCHYVHYASASTVLPAFGVDAWGQGTTVTVSS
VL: DIVMTQSPLSLPVTPGEPASISCQASQELVHMNMNTYLHWYQQKPGQAPRLLIYKVSNRFPGVPDRFSGSGSGTDFTLKISRVEAEDVGVYYCAQGTSVPFTFGQGTKLEIK
B3: H183/L072 VL R29D (antibody, name in Kabat numbering, V domains shown)
VH: QVQLVESGGGLVQPGRSLRLSCAASGFTFSNAWMHWVRQAPGKGLEWVAQIKDKGNAYAAYYAPSVKGRFTISRDDSKNSIYLQMNSLKTEDTAVYYCHYVHYASASTVLPAFGVDAWGQGTTVTVSS
VL: DIVMTQSPLSLPVTPGEPASISCQASQELVHMNDNTYLHWYQQKPGQAPRLLIYKVSNRFPGVPDRFSGSGSGTDFTLKISRVEAEDVGVYYCAQGTSVPFTFGQGTKLEIK
B4: H183/L072 VL R29K (antibody, name in Kabat numbering, V domains shown)
VH: QVQLVESGGGLVQPGRSLRLSCAASGFTFSNAWMHWVRQAPGKGLEWVAQIKDKGNAYAAYYAPSVKGRFTISRDDSKNSIYLQMNSLKTEDTAVYYCHYVHYASASTVLPAFGVDAWGQGTTVTVSS
VL: DIVMTQSPLSLPVTPGEPASISCQASQELVHMNKNTYLHWYQQKPGQAPRLLIYKVSNRFPGVPDRFSGSGSGTDFTLKISRVEAEDVGVYYCAQGTSVPFTFGQGTKLEIK
B5: H183/L072 VL R29H (antibody, name in Kabat numbering, V domains shown)
VH: QVQLVESGGGLVQPGRSLRLSCAASGFTFSNAWMHWVRQAPGKGLEWVAQIKDKGNAYAAYYAPSVKGRFTISRDDSKNSIYLQMNSLKTEDTAVYYCHYVHYASASTVLPAFGVDAWGQGTTVTVSS
VL: DIVMTQSPLSLPVTPGEPASISCQASQELVHMNHNTYLHWYQQKPGQAPRLLIYKVSNRFPGVPDRFSGSGSGTDFTLKISRVEAEDVGVYYCAQGTSVPFTFGQGTKLEIK
B6: H183/L072 VL R29N (antibody, name in Kabat numbering, V domains shown)
VH: QVQLVESGGGLVQPGRSLRLSCAASGFTFSNAWMHWVRQAPGKGLEWVAQIKDKGNAYAAYYAPSVKGRFTISRDDSKNSIYLQMNSLKTEDTAVYYCHYVHYASASTVLPAFGVDAWGQGTTVTVSS
VL: DIVMTQSPLSLPVTPGEPASISCQASQELVHMNNNTYLHWYQQKPGQAPRLLIYKVSNRFPGVPDRFSGSGSGTDFTLKISRVEAEDVGVYYCAQGTSVPFTFGQGTKLEIK
B7: H183/L072 VL R29I (antibody, name in Kabat numbering, V domains shown)
VH: QVQLVESGGGLVQPGRSLRLSCAASGFTFSNAWMHWVRQAPGKGLEWVAQIKDKGNAYAAYYAPSVKGRFTISRDDSKNSIYLQMNSLKTEDTAVYYCHYVHYASASTVLPAFGVDAWGQGTTVTVSS
VL: DIVMTQSPLSLPVTPGEPASISCQASQELVHMNINTYLHWYQQKPGQAPRLLIYKVSNRFPGVPDRFSGSGSGTDFTLKISRVEAEDVGVYYCAQGTSVPFTFGQGTKLEIK
B8: H183/L072 VL R29T (antibody, name in Kabat numbering, V domains shown)
VH: QVQLVESGGGLVQPGRSLRLSCAASGFTFSNAWMHWVRQAPGKGLEWVAQIKDKGNAYAAYYAPSVKGRFTISRDDSKNSIYLQMNSLKTEDTAVYYCHYVHYASASTVLPAFGVDAWGQGTTVTVSS
VL: DIVMTQSPLSLPVTPGEPASISCQASQELVHMNTNTYLHWYQQKPGQAPRLLIYKVSNRFPGVPDRFSGSGSGTDFTLKISRVEAEDVGVYYCAQGTSVPFTFGQGTKLEIK
B9: H183/L072 VL R29Q (antibody, name in Kabat numbering, V domains shown)
VH: QVQLVESGGGLVQPGRSLRLSCAASGFTFSNAWMHWVRQAPGKGLEWVAQIKDKGNAYAAYYAPSVKGRFTISRDDSKNSIYLQMNSLKTEDTAVYYCHYVHYASASTVLPAFGVDAWGQGTTVTVSS
VL: DIVMTQSPLSLPVTPGEPASISCQASQELVHMNQNTYLHWYQQKPGQAPRLLIYKVSNRFPGVPDRFSGSGSGTDFTLKISRVEAEDVGVYYCAQGTSVPFTFGQGTKLEIK
B10: H183/L072 VL R29F (antibody, name in Kabat numbering, V domains shown)
VH: QVQLVESGGGLVQPGRSLRLSCAASGFTFSNAWMHWVRQAPGKGLEWVAQIKDKGNAYAAYYAPSVKGRFTISRDDSKNSIYLQMNSLKTEDTAVYYCHYVHYASASTVLPAFGVDAWGQGTTVTVSS
VL: DIVMTQSPLSLPVTPGEPASISCQASQELVHMNFNTYLHWYQQKPGQAPRLLIYKVSNRFPGVPDRFSGSGSGTDFTLKISRVEAEDVGVYYCAQGTSVPFTFGQGTKLEIK
B11: H183/L072 VL R29A (antibody, name in Kabat numbering, V domains shown)
VH: QVQLVESGGGLVQPGRSLRLSCAASGFTFSNAWMHWVRQAPGKGLEWVAQIKDKGNAYAAYYAPSVKGRFTISRDDSKNSIYLQMNSLKTEDTAVYYCHYVHYASASTVLPAFGVDAWGQGTTVTVSS
VL: DIVMTQSPLSLPVTPGEPASISCQASQELVHMNANTYLHWYQQKPGQAPRLLIYKVSNRFPGVPDRFSGSGSGTDFTLKISRVEAEDVGVYYCAQGTSVPFTFGQGTKLEIK
B12: H183/L072 VL R54D (antibody, name in Kabat numbering, V domains shown)
VH: QVQLVESGGGLVQPGRSLRLSCAASGFTFSNAWMHWVRQAPGKGLEWVAQIKDKGNAYAAYYAPSVKGRFTISRDDSKNSIYLQMNSLKTEDTAVYYCHYVHYASASTVLPAFGVDAWGQGTTVTVSS
VL: DIVMTQSPLSLPVTPGEPASISCQASQELVHMNRNTYLHWYQQKPGQAPRLLIYKVSNDFPGVPDRFSGSGSGTDFTLKISRVEAEDVGVYYCAQGTSVPFTFGQGTKLEIK
B13: H183/L072 VL R29G (antibody, name in Kabat numbering, V domains shown)
VH: QVQLVESGGGLVQPGRSLRLSCAASGFTFSNAWMHWVRQAPGKGLEWVAQIKDKGNAYAAYYAPSVKGRFTISRDDSKNSIYLQMNSLKTEDTAVYYCHYVHYASASTVLPAFGVDAWGQGTTVTVSS
VL: DIVMTQSPLSLPVTPGEPASISCQASQELVHMNGNTYLHWYQQKPGQAPRLLIYKVSNRFPGVPDRFSGSGSGTDFTLKISRVEAEDVGVYYCAQGTSVPFTFGQGTKLEIK
B14: H183/L072 VL R29W (antibody, name in Kabat numbering, V domains shown)
VH: QVQLVESGGGLVQPGRSLRLSCAASGFTFSNAWMHWVRQAPGKGLEWVAQIKDKGNAYAAYYAPSVKGRFTISRDDSKNSIYLQMNSLKTEDTAVYYCHYVHYASASTVLPAFGVDAWGQGTTVTVSS
VL: DIVMTQSPLSLPVTPGEPASISCQASQELVHMNWNTYLHWYQQKPGQAPRLLIYKVSNRFPGVPDRFSGSGSGTDFTLKISRVEAEDVGVYYCAQGTSVPFTFGQGTKLEIK
B15: H183/L072 VL R29S (antibody, name in Kabat numbering, V domains shown)
VH: QVQLVESGGGLVQPGRSLRLSCAASGFTFSNAWMHWVRQAPGKGLEWVAQIKDKGNAYAAYYAPSVKGRFTISRDDSKNSIYLQMNSLKTEDTAVYYCHYVHYASASTVLPAFGVDAWGQGTTVTVSS
VL: DIVMTQSPLSLPVTPGEPASISCQASQELVHMNSNTYLHWYQQKPGQAPRLLIYKVSNRFPGVPDRFSGSGSGTDFTLKISRVEAEDVGVYYCAQGTSVPFTFGQGTKLEIK
B16: H183/L072 VL R29Y (antibody, name in Kabat numbering, V domains shown)
VH: QVQLVESGGGLVQPGRSLRLSCAASGFTFSNAWMHWVRQAPGKGLEWVAQIKDKGNAYAAYYAPSVKGRFTISRDDSKNSIYLQMNSLKTEDTAVYYCHYVHYASASTVLPAFGVDAWGQGTTVTVSS
VL: DIVMTQSPLSLPVTPGEPASISCQASQELVHMNYNTYLHWYQQKPGQAPRLLIYKVSNRFPGVPDRFSGSGSGTDFTLKISRVEAEDVGVYYCAQGTSVPFTFGQGTKLEIK
B17: H183/L072 VL R29V (antibody, name in Kabat numbering, V domains shown)
VH: QVQLVESGGGLVQPGRSLRLSCAASGFTFSNAWMHWVRQAPGKGLEWVAQIKDKGNAYAAYYAPSVKGRFTISRDDSKNSIYLQMNSLKTEDTAVYYCHYVHYASASTVLPAFGVDAWGQGTTVTVSS
VL: DIVMTQSPLSLPVTPGEPASISCQASQELVHMNVNTYLHWYQQKPGQAPRLLIYKVSNRFPGVPDRFSGSGSGTDFTLKISRVEAEDVGVYYCAQGTSVPFTFGQGTKLEIK
B18: H183/L072 VL R54A (antibody, name in Kabat numbering, V domains shown)
VH: QVQLVESGGGLVQPGRSLRLSCAASGFTFSNAWMHWVRQAPGKGLEWVAQIKDKGNAYAAYYAPSVKGRFTISRDDSKNSIYLQMNSLKTEDTAVYYCHYVHYASASTVLPAFGVDAWGQGTTVTVSS
VL: DIVMTQSPLSLPVTPGEPASISCQASQELVHMNRNTYLHWYQQKPGQAPRLLIYKVSNAFPGVPDRFSGSGSGTDFTLKISRVEAEDVGVYYCAQGTSVPFTFGQGTKLEIK
B19: H183/L072 VL R29L (antibody, name in Kabat numbering, V domains shown)
VH: QVQLVESGGGLVQPGRSLRLSCAASGFTFSNAWMHWVRQAPGKGLEWVAQIKDKGNAYAAYYAPSVKGRFTISRDDSKNSIYLQMNSLKTEDTAVYYCHYVHYASASTVLPAFGVDAWGQGTTVTVSS
VL: DIVMTQSPLSLPVTPGEPASISCQASQELVHMNLNTYLHWYQQKPGQAPRLLIYKVSNRFPGVPDRFSGSGSGTDFTLKISRVEAEDVGVYYCAQGTSVPFTFGQGTKLEIK
B20: H183/L072 VL R29E (antibody, name in Kabat numbering, V domains shown)
VH: QVQLVESGGGLVQPGRSLRLSCAASGFTFSNAWMHWVRQAPGKGLEWVAQIKDKGNAYAAYYAPSVKGRFTISRDDSKNSIYLQMNSLKTEDTAVYYCHYVHYASASTVLPAFGVDAWGQGTTVTVSS
VL: DIVMTQSPLSLPVTPGEPASISCQASQELVHMNENTYLHWYQQKPGQAPRLLIYKVSNRFPGVPDRFSGSGSGTDFTLKISRVEAEDVGVYYCAQGTSVPFTFGQGTKLEIK

The experiment deals with T1, Human CD3eg linker (human).
T1 construct: Single-chain construct; also called recombinant human CD3
T1 chain: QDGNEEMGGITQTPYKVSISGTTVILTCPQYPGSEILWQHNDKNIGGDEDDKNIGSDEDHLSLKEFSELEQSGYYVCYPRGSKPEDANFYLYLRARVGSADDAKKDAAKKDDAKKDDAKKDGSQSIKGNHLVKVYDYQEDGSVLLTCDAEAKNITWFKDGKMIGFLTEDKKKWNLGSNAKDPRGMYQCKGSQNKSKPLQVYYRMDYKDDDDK
The experiment in a line: SPR; fold vs parent H183/L072.
Turning to B1, the “fold change of affinity” value came to 0 fold.
For B2, the “fold change of affinity” value was 0.7 fold.
With B3, the “fold change of affinity” value was determined as 0.3 fold.
As to B4, the “fold change of affinity” value turned out to be 1.1 fold.
For the molecule B5, the “fold change of affinity” value came out at 0.8 fold.
Turning to B6, the “fold change of affinity” value is 0.3 fold.
As to B7, the “fold change of affinity” value was found to be 0.2 fold.
As for B8, the “fold change of affinity” value is 0.8 fold.
For B9, the “fold change of affinity” value turned out to be 0.7 fold.
For the molecule B10, the “fold change of affinity” value was 0.6 fold.
In the case of B11, the “fold change of affinity” value stood at 0.6 fold.
For B12, the “fold change of affinity” value was 0.5 fold.
Then B13, with 1.2 fold; and B14, with 0.5 fold; and B15, with 0.8 fold.
Consider B16, for which the “fold change of affinity” value amounted to 0.5 fold.
In the case of B17, the “fold change of affinity” value was 0.3 fold.
For the molecule B18, the “fold change of affinity” value was 1 fold.
Then B19, with 0.8 fold; and B20, with 0.3 fold.
